Columns and labels:
[1] = biological target: protein phosphatase 1 (rabbit) (UniProt P62139)
[2] = biological target: protein phosphatase 1 (rabbit) (UniProt P62139); remark: listed apart in the source

UniProt P62139, sequence (P62139 whole entry): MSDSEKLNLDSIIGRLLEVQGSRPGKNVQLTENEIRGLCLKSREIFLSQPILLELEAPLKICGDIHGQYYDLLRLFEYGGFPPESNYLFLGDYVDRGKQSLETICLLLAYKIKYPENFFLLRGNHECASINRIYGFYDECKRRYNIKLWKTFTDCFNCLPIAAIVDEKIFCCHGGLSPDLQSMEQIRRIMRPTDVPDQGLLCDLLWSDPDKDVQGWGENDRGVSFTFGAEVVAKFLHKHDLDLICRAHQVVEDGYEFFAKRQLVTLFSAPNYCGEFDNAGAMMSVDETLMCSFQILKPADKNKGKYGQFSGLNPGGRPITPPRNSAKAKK

Substance	IC50 of inhibition of PP1 activity (colorimetric protein phosphatase inhibition assay, p-nitrophenyl disodium orthophosphate, 25.0°C, pH 7.4) [1]	IC50 of inhibition of PP1 activity (inhibition curves, colorimetric protein phosphatase inhibition assay) [2]
glutathione conjugate of MCLR (peptide)	86.6 μg/L	86.6 µM
glutathione conjugate of MCRR (peptide)	98.7 μg/L	98.7 µM

— paper PMC5350311
